The values that follow come from patent publication US20260201391.

Like-named read-outs stand apart in the source and are kept apart here.

The data set deals with thrombin.

For the setting “Kd of TBV-08 stated as 300-fold lower than Bock-15”, Bock-15 registered a binding signal (fold higher Kd than TBV-08) of 300.
Take Tasset-29: the binding signal (fold higher Kd than TBV-08) (Kd of TBV-08 stated as 200-fold lower than Tasset-29) was 200.
